In FireProtDB (doi:10.1021/bi015547k):

B1: Steroid Delta-isomerase, P07445 (parent)
chain: MNLPTAQEVQGLMARYIELVDVGDIEAIVQMYADDATVEDPFGQPPIHGREQIAAFYRQGLGGGKVRACLTGPVRASHNGCGAMPFRVEMVWNGQPCALDVIDVMRFDEHGRIQTMQAYWSEVNLSVREPQ

Variants of: B1
Conditions: Pseudomonas putida; pH 7; 25 °C; Urea; CD; potassium phosphate 20 mM; reversible: yes; structure 1OH0; whole UniProt chain shown

| Variant | ddG of mutation (higher = less stable) [kcal/mol] | denaturant m value [kcal/mol/M] | denaturant midpoint (higher = more stable) [M] | unfolding free energy [kcal/mol] |
| --- | --- | --- | --- | --- |
| Y57S | 9.5 | 3.43 | 2.41 | 14.8 |
| Y16S |  | 2.93 | 1.99 | 12.4 |
| Y32S |  | 2.55 | 1.56 | 10.6 |
